From patent US20230076357A1

Key:
Assay in all cases: cell-based or functional assay
[1] = biological target: nCas9-LZ1 (NLS-SpCas9(H840A)-NLS-EE12RR345L(leucine zipper)) (Streptococcus pyogenes serotype M1) (UniProt Q99ZW2)
[2] = biological target: nCas9(1-1172)-Npu N intein (Streptococcus pyogenes serotype M1) (UniProt Q99ZW2)
[3] = biological target: constitutively active SAMHD1 (SAMHD1 (T592A)) (UniProt Q9Y3Z3)
constitutively active SAMHD1 (SAMHD1 (T592A)), sequence (Q9Y3Z3 whole entry T592A): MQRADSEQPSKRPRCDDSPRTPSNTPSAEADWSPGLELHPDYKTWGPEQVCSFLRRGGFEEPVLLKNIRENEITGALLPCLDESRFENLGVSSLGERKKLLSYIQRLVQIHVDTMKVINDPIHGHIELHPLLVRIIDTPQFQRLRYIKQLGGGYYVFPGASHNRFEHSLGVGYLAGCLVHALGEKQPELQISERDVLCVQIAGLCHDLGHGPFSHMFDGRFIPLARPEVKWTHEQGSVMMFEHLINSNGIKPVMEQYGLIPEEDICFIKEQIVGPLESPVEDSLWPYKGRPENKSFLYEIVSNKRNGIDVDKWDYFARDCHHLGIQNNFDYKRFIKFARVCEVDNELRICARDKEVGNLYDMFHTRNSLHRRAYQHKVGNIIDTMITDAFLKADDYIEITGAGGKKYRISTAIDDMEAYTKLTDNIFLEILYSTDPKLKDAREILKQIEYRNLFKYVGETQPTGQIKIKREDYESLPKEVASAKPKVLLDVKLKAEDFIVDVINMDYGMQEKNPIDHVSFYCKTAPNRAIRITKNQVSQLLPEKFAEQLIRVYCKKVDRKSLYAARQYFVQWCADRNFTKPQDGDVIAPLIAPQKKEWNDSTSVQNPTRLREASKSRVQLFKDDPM

LZ2-mlvRT (RR12EE345L(leucine zipper)-mlvRTv(D200N, L603W, T306K, W313F, T330P)-NLS) (enzyme)
editing efficiency (BFP to GFP conversion in HEK293T-BFP cells) [1]: 38%

Npu C intein-nCas9(1173-1368 with S1173C)-mlvRT5M (enzyme)
editing efficiency (% GFP+) [2]: 29%

VPX^RH2-1 (variant of VPX from HIV-2 clinical isolate RH2-1) (from UniProt P20881 1-112)
editing efficiency with RW2I, edit 2 nt from the nick, SAMHD1 (T592A) coexpressed [3]: 64%

Vpx peptide (Hiv2-rod Vpx) (from UniProt P06939 1-112)
editing efficiency relative to that without SAMHD1^p-, edit 65 nt from the nick [3]: 78%
